According to a protein production outcome set (Wang et al. 2014):

Experiment: label from the status in PepcDB records

Sequence: MRYHGGLLLGAFDDDGKIIGMSFGYPGFRNGKLYLYSHMAGVVENKKYSNVGYSLKMKQRDLAASMGYDLIAWTFDPFNPLNAYFNISKLGAITRTYIKNFYGVMNDGINRGMRTDRVVAEWWI
- protein production: failed

Sequence: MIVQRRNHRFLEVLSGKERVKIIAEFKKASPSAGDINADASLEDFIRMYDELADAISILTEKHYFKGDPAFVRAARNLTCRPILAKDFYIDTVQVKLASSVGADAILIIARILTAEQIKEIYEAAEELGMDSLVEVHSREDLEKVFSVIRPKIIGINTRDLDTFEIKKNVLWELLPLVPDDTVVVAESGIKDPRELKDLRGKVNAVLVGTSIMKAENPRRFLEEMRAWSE
- protein production: not failed

Sequence: MVDSYDDSLDGEKSKTQVKRELHALVDLGERLTTLKADVLAKLPLTDALRKALAEAPKHTANIARKRHILFIGKLMRDQDQEAILVLLDQLDASTRQYNERFHNLERWRDRLIAGDDADLEKFVIEYPDADRQQLRSLIRQAQHEVARNKPPATSRKIFKYIRELDELQ
- protein production: not failed

Sequence: MSLFIYEVLIRLFMTFILSLLLTPLVKLLAFRIGAYDAPGERRINTKNMPTAGGLAIYIAFASSCLLIFRSIIPQDYIWPIILAGGMVVLTGLIDDIKEITPMKKTIGILLAALVIYFVAGIRIDFVTLPVVGMIDLRWFSLPLTLLWILAITNAVNLIDGLDGLASGVSIIGLTTIGITGYFFLHAKTVYIPIVIFILVASIAGFFPYNFYPAKIFLGDTGALFLGFMIAVMSLQGLKNATFITVITPMVILGVPITDTVYAIIRRLLNKKPISSADKMHLHHRLLSLGFTHKGAVMTIYALALVFSFVSLLFSYSSTVASILLIVFCLIGLELFIELIGLVGEGHQPLMYLLRILGNREYRQEQMKKRLGKHSKRK
- protein production: failed

Sequence: PQEKLKLLAFTGTKGKTTAAYFAYHMLKESYKPAMFSTMNTTLDGKTFFKSQLTTPESLDLFAMMAECVTNGMTHLIMEVSSQAYLVDRVYGLTFDVGVFLNISPDHIGPIEHPTFEDYFYHKRLLMENSRAVVINSGMDHFSFLADQVADQEHVFYGPLSDNQITTSQAFSFEAKGQLAGHYDIQLIGHFNQENAMAAGLACLRLGASLADIQKGIAKTRVPGR
- protein production: failed

Sequence: MRPAVIAATGLYTPPDSVSNAELVEAFNTYVANFNAANKARIEAGEIEPLQPSSSEFIEKASGIKSRYVVAKPGIVDPDVMRPIIPERSNDELSILAEMAVTAAEQAIERWGKPRERIGAVLCACSNMQRAYPAMAIEVQNALGLGGFAFDMNVACSSATFGLKTAADFVGGGSVDAVLMVNPEICSGHLNFRDRDSHFIFGDVATAAIVERADDAQGGWS
- protein production: failed

Sequence: VKFLTVNDDILSMPQARNFCASAGGYLADDLGDDKNNFYSSIAANTQFWIGLFKNSDGQFYWDRGQGINPDLLNQPITYWANGEPSNDPTRQCVYFDGRSGDKSKVWTTDTCATPRPFICQKHRYDSDHKPNTIGDA
- protein production: not failed

Sequence: MSHALRAVFLDHASLDLGDLDMRPLRAAFDELQLHAASQPQEVAARLHDARVAISNKVPIDAQCIAACPELELILISATGTNNIDLAAARERGIVVANCHGYGTPSVAQHTLALLLALATRLPDYQQAVRSGRWQQSSQFCLLDFPIVELEGKTLGLLGHGELGGAVARLAEAFGMRVLLGQLPGRPARADRLPLGELLPRVDALTLHCPLTEDTRGMLGSAELALMKPGAFLVNTARGGLVDEQALADALRGGHLGGAATDVLSVEPPRNGNPLLAPDIPRLIVTPHNAWGSREARQRIVGQLAENAEAWKAGR
- protein production: failed

Sequence: MATKRANGEGSIGKYKDGWRSRIMIGYNEDGKPLRKEFYGKTQKEVKDKLDAYKKQYYLSSDISDDKITLEHWFYNWLFEYRIKDLKPKSFERYESIYRNYIKDTDLGNVKLKYLRVSHIQKYYNRLLDSNKSIPTIRQINTKLKTCLSEAEKQGLIQRNYCTMVNIPVEKKENKLEILTLEQQKSFIKAIDGHKLEVLFLLALGTGLRLGELLGLKWFDIDFKKSNLTVKRTLQRTYFIDKTGNRELKVLEQGPKTSNSYRTVPIPKDVLNKLKEHKVNQNTDILKAGELYINNNYVFCNELGIPIDDKRPLRNLKSILNSLNIEPIKFHGLRKTYATRLFENDVPPKTVQVLMGHYDISITLNIYTQVMEDKKVEAVEKLDKIFSL
- protein production: failed

Sequence: MSYSWKKILIKPESTVVDALRVIDNEALRIALVVNDEQQLLGVVTDGDIRRGLLNNLPLETPVVDIMSRSPITASVNTAKEQLVKLMESKSILAVPLMEENKVVGLETLHHLFEEKTYHNPVFIMAGGFGTRLRPLTDTCPKPMLKIGNKPILETVIRSFIKAGFVNFYISTHYMPEQIQNHFGDGSELGVKISYVHEDSPLGTGGALGLLPDDLPQDLPLIMMNGDVLTKVDFERLLDFHTENQADATMCVREYDYQIPYGVINGKGNKITSMVEKPIQRFFVNAGIYVVSPSVIQSVPKNHHIDMPTLLEQHMNERDNILMFPIHEYWLDIGRMDDFNRAQADIHTLGLDLEHHHHHH
- protein production: failed

Sequence: MSDHVCQEGCRHHSHGEDSPEIQQEFQEGRRDFMRDFAVGGVLASAASLGISSSAFGQTMPKTGLTSGHATHYYIPASDKTVSWGFFSKSLKPVVELESGDFATIETLTHHSNDDASLMVKGDPGAESVFYWDSKRKNVDRRGMGPMDHKLGAGGGMGVHILTGPVAIKGAEPGDVLEVRIVDVALRPSANPEFKGKTFGSNVAANWGFHYNELIEEPKKREVVTIYELDATGERNWARAFYNYRWTPQKDPFGVVHPIVDYPGVPVDHSTISKNYNVLKNIRVPVRPHFGTMGLAPKEADLVNSVPPSHFGGNIDNWRIGKGATMYYPVSVAGGLFSVGDPHASQGDSEMCGTAIECSLTGTFQFILHKKADLPGTPLADLQYPLLETQDEWVLHGFSYANYLAELGPDAQNSIFSKSSLDLALKDAFRKMRHFLMQTQNLTEDEAVSLMSIGVDFGITQVVDGNWGVHAVVKKGIFPGRDV
- protein production: not failed

Sequence: MGNKRFRSDNNAGKPTSVEATRIWATKVIEDFRASGNEVYTFEHNLSNNERGVIHQMCRKMGIQSKSSGRGEQRRLSIFKSRHKNGNKNEANEKSNKEKLKCVSFPPGADVILQELFTHYPPCDGDTAATSFTKYSGNKGKQGQWKDDFFRKPQISSEEILEKVASLSSRLKKDKALKEITKLRSKLPITSFKDAITSAVESNQVL
- protein production: failed

Sequence: MSEKMRRIVEAAGGIVWRWKAGSDIANDPAIASSKSAQEQLDSIEVCIVHRPKYDDWSWPKGKLEQNETHRHAAVREIGEETGSPVKLGPYLCEVEYPLSEEGKKTRHSHDCTADTKHTLYWMAQPISADDAEHLLDAFGPVHRADVGEINDIVWVSVREARKILSHSTDKDTLAVFVDRVQEGAATAQNLLIVRHAKAESRKSWKGTDANRPITPKGAAMAFALNRELACFNPTRLATSPWLRCQETLQVLSWQTERPMEHINTLTEDAFAEHPAVSWLAFREQITQTLNSRETTAICMHRPVIGGMYDHLRGLCARKQLAKQLIAKSPYMPTGTAMSLFIIDTPQGPSIIDIQKVSPIVY
- protein production: failed

Sequence: MILVTGFEPFGSLEHNPSQALLDLLPSEVDGKPLRKAVLPVDAEALGEALEDLHREGPKAVLHLGLAEDRPVLTLERLAVNLLDFPRPDNRGRVLEDLPIVPGGPLALPARFPVKPVLARWREAGIPGRPSLSAGSYLCNQAFYLSLYRLPEEVPVGFLHLPPDETLALKRPRPYVPLEVQARAVRLALEHL
- protein production: not failed

Sequence: MVIIDWSLSVDRTIPKPLRIILRGVGQVFFCCNAVTGLIFLMALYIGGVTAGLAATAGVFSSTIAAHLLGFPEKDIDAGLYGFNGTLVGPCLFLFLENSPQLWLYVVLASILSTIVLAALMRILQPCDIPASTAPFILTCWMFMAAVYAFDSFSRGPLLPTAGIPVEAANISMIPVEIGYMAAAKGISEVMFADSVVVGILFLAGIAIHSLRGAAMALAGAIVGIVIPVLLGMDKSLIEMGLYAFNPVLAMMAVGWAFLKPSGRSMGLAFLAGIFTVICQAGLTGFLTPLGLPVLTFPFVLVMWVFLLAASRSKYWEYLNQGK
- protein production: failed

Sequence: MNTHQNRYSVQSKVSALINCRLFQSFITTVIVLNAISIGLETYAFFKPYQKVFFIVDCLFLTIFVIELSLKLFVQKQHFFKNNWNVFDFVIVAGSLILYNTNFVSVLRIFRVLRVLRTITSVPSLRRIVNALFMAIPTISSVIILMSIIFYVYAVIGTMFFSAIAPEYFGNLQLSLLTLFQTFTLESWASGIFRPIFAESGWSWLYFVSFIVIATFIMINLIVGEIVNNAQKISQEIEDETGELKEDTKEIKELRAEVKELKALLQTYITQNEKKD
- protein production: failed

Sequence: MTESDRDQEASMREVVIVKSTPQRGKFNAFAELVGKLVSETRDFPGCLGAYLMLAPERNEQVVMHIWETPDALEAYLTWRADRGDFLEINEYLEVEQDFKTYQLA
- protein production: not failed

Sequence: MNQPASAYFMDERKDPVETHTLSVLVQNEPGVLARVIGLFSGRGYNIESLTVSETEAQKHVSRITIVTTGTLAVIQQIKHQLDRMVPVYRVVDMTLSGRSIERELAMVKLRGVGEHRVEALRLAEAFRARVIDATIESFVFEITGNSAKINQFIDLMRPLGLVEVSRTGVAAIGRGPEGM
- protein production: failed

Sequence: MAGTIAIKNGYVFDPLNEINGEKMDIFIRDGKVVKELSASEMKTSRVIDASGMTVMPGGVDSHSHVAGAKVNAGRSMRPEDHYKANLKKTPLTHSGSGYTVPSVYKQGYDYAAMGYTTVFEAAVPPLEARHTHEEMRATPLLDMGGYLVLGNNFFLMRYLRDGDMEKAAAYVAWMMKTHKTYGIKCVNPAGVENWAWGKNVSTLDETNIHFEITPREVIKGLTEVNETLGMPMPVHLHANNLGHPGCYAITKDSLKIPDGVKTKQNMAVEWAETKMDLSRDRSVYLTHLMFNSFAGTTWGDCESGVKDIADYINNKDHVVIDSGCTPFGEATVMTGDGPAIHDLYTLTGNKWSNTDVEMECGSGVLPFTYLKSNPVHSLQWAMGLECLLLIKDPWKTIMTTDSPNGGPFTKYPEVMTWIMSEAFRKQTFSECHKWANDRSELGGINRELSLYDLAILTRANPAKTIGMAHRKGSLGVGADGDVTVYNINPQQLDANNYEALLRTFRKAEYTVKGGEIVAVKGEIVSLPEKRTYYSEVHVENEREKEMLVDVKEWFRYYTLGFANYSTPEKYLANPTPIQVNSER
- protein production: failed

Sequence: MNIKVTVFHYILDRSYIFLLFIIFISLIFPIISAFISLIFVGLLFQGLYLRRQSSTNSPYIVLEILSMLSLIYAAQFFTHLLKATDIVFLSYLIIISLSLYRLKRIIKKKTNYLQNSKVAFTLLLLAFLLNWFISGFLDLTQGNFSVFGQFGYFSYPFLAIMNFISAFASITASPWFMIDMGIWLGVIGIFRIIEYNKLENKIRYLLMMFAYAFYSIYLPSFSPLQSEVQYIPYMWFNGLGTYGPVRSSYLLDGIIGTFTVTAILSFMFGSRQICSVTCTAPYMLQNTFLNSMKKYNRSSKVGRKTLTSRMSSWYKWVMSITWISLIILAVLSFLKFSILGNDPTMFYTSLYFNVIWYFQFMLMPFLGNYACVNSGICAWGSFNQLFGYLGFFKLKVRDLKQCLNCKTVDCANACPVGLTDMRAWFIKKGEFKSFKCVGVGDCVEVCPYNNITFYDVRSWIKEKLYPIQFKHRGTT
- protein production: failed

Sequence: MKKAGILGLIITIIVLVPVGLGFNWYHSNYGTKTYYTQITTKGERKTGKDDSGKPYVYYHYSQPGYSDNGVKKELTFDSVLPRSLKMHAYLKVGYNDKRQQVINWEKVNQKDIPQAALNRIQKLEHHHHHH
- protein production: not failed
